T1: hTBPΔQ40, hTBP lacking the Poly-glutamine region (amino acids 50-102), fused to the N-terminal fragment of … (human, UniProt P20226 1-339, lacking the Poly-glutamine region (amino acids 50-102))
T1 construct: made by site-directed mutagenesis; source: HEK293, transfected, in living cells
T1 sequence (looked up): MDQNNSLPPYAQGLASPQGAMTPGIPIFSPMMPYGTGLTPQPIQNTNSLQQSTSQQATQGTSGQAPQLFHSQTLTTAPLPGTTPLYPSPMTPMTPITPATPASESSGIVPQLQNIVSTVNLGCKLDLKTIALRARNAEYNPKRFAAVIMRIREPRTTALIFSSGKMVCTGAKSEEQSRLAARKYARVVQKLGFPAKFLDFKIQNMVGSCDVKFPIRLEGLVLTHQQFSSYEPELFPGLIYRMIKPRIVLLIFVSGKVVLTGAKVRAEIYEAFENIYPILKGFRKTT


Columns and labels:
[1] = target: T2, TATA-binding protein (hTBP), fused to the N-terminal fragment of Venus (human, UniProt P20226 1-339); test: split reporter (BiFC, NanoBiT); BiFC in HEK293 cells co-transfected with VC- and VN- constructs and pCAG-mCherry; read 48 h after transfection; interaction percent = green cells per 100 red cells; settings: partners not purified
T2 construct: also called VNTBP; source: HEK293, transfected, in living cells

[2] = target: T1, hTBPΔQ40, hTBP lacking the …; test: as above; settings: partners not purified

Row | Binder | percent of transfected cells showing BiFC [1] | percent of transfected cells showing BiFC [2]
1 | AntpQ6, Antp with deletion of three glutamines (amino acids 150-152) and substitution of three glutamines to alanines (amino acids 153-155), fused to the … (natural protein, Antennapedia (Antp) with deletion of three glutamines (150-152) and three glutamines changed to alanines (153-155); source: HEK293, transfected, in living cells) not shown | 63% | –
2 | AntpΔN, Antp lacking the N-terminal region (amino acids 1-269), fused to the C-terminal fragment of Venus (domain or fragment, Antennapedia (Antp) lacking the N-terminal region (amino acids 1-269); source: HEK293, transfected, in living cells) not shown | 51% | 14%
3 | AntpΔHD, Antp without the YPWM motif and homeodomain (amino acids 245-363), fused to the C-terminal fragment of Venus (natural protein, Drosophila, UniProt P02833 1-378, looked up, Antennapedia (Antp) without the HD (amino acids 245-363); the text calls it the YPWM-HD deletion; source: HEK293, transfected, in living cells) MTMSTNNCESMTSYFTNSYMGADMHHGHYPGNGVTDLDAQQMHHYSQNANHQGNMPYPRFPPYDRMPYYNGQGMDQQQQHQVYSRPDSPSSQVGGVMPQAQTNGQLGVPQQQQQQQQQPSQNQQQQQAQQAPQQLQQQLPQVTQQVTHPQQQQQQPVVYASCKLQAAVGGLGMVPEGGSPPLVDQMSGHHMNAQMTLPHHMGHPQAQLGYTDVGVPDVTEVHQNHHNMGMYQQQSGVPPVGAPPSGGEGDEITPPNSPQ | 74% | –
4 | AntpΔPolyQ, Antp with deletion of PolyQ regions (amino acids 66-136), fused to the C-terminal fragment of Venus (natural protein, Antennapedia (Antp) with deletion of PolyQ regions (amino acids 66-136); source: HEK293, transfected, in living cells) not shown | 51% | –
5 | AntpQ9, Antp with deletion of the 9-polyQ stretch (amino acids 110-118), fused to the C-terminal fragment of Venus (natural protein, Antennapedia (Antp) with deletion of the 9-polyQ stretch (amino acids 110-118); source: HEK293, transfected, in living cells) not shown | 57% | –
6 | Antennapedia (Antp), fused to the C-terminal fragment of Venus (natural protein, Antennapedia (Antp) Hox protein; also called VCAntp; Antp WT; source: HEK293, transfected, in living cells) not shown | 77% | 41%
7 | AntpQ5, Antp with the 5-polyQ stretch mutagenized to alanines (amino acids 123-127), fused to the C-terminal fragment of Venus (natural protein, Antennapedia (Antp) in which the 5-polyQ stretch was mutagenized to alanines (amino acids 123-127); source: HEK293, transfected, in living cells) not shown | 74% | –

Reference: paper PMC9150345, “Trimeric complexes of Antp-TBP with TFIIEβ or Exd modulate transcriptional activity” (Hereditas, 2022)
